Patent publication US20180023049A1, “SYNTHETIC PEPTIDE HYDROGEL FORMULATIONS FOR USE AS EXTRACELLULAR MATRIX” (3-D MATRIX, LTD., priority 2015, published 2018)

Assays:
[1] = pH, pKa and isoelectronic point of PuraMatrix; assay type: physicochemical; settings: aqueous 1% PuraMatrix solution, in this study
Description: Isoelectronic point (pI) is the pH at which a particular molecule carries no net electrical charge. PuraMarix® has four arginine and four aspartic acid. […] That means that there is no net electrical charge between around pH 3.9 and around pH 11.5, where the solubility of PuraMatrix® becomes low. Usually, aqueous PuraMatrix® solution has its pH level at 2.0-2.5. […] Although isotonic PuraMatrix® formulated in 10% sucrose solution has been used for cell culture experiments as shown in the current PuraMatrix® cell culture protocol, the pH of PuraMatrix® with 10% sucrose was also 2.2.

[2] = cited from earlier work

For RADARADARADARADA [PuraMatrix®], the pH [1] is listed as 2.2, the pH level ([2]; aqueous PuraMatrix solution, usually) is listed as 2.0-2.5 and the solubility ([2]; between around pH 3.9 and around pH 11.5) is listed as “low”. The “pKa of aspartic acid in PuraMatrix” value [2] was 3.9.
